In the supplement of paper PMC11246515:
± gives the standard deviation of the averaged measurements.

Experiment: total protein half-life in vivo (active degradation + dilution); higher = more stable protein
[1] = E. coli NCM3722 delta-clpP delta-lon delta-hslV, growth: N-lim chemostat, doubling time 6 h
[2] = E. coli NCM3722 delta-clpP, growth: N-lim chemostat, doubling time 6 h
[3] = E. coli NCM3722 delta-hslV, growth: N-lim chemostat, doubling time 6 h
[4] = E. coli NCM3722 delta-lon, growth: N-lim chemostat, doubling time 6 h
[5] = E. coli NCM3722 delta-smpB, growth: N-lim chemostat, doubling time 6 h
[6] = wild type E. coli NCM3722, growth: C-lim chemostat, doubling time 3 h
[7] = wild type E. coli NCM3722, growth: C-lim chemostat, doubling time 6 h
[8] = wild type E. coli NCM3722, growth: C-lim chemostat, doubling time 12 h
[9] = wild type E. coli NCM3722, growth: N-lim chemostat, doubling time 6 h
[10] = wild type E. coli NCM3722, growth: N-lim chemostat, doubling time 12 h
[11] = wild type E. coli NCM3722, growth: P-lim chemostat, doubling time 6 h
[12] = wild type E. coli NCM3722, growth: P-lim chemostat, doubling time 12 h

Sequence: MTQVAKKILVTCALPYANGSIHLGHMLEHIQADVWVRYQRMRGHEVNFICADDAHGTPIMLKAQQLGITPEQMIGEMSQEHQTDFAGFNISYDNYHSTHSEENRQLSELIYSRLKENGFIKNRTISQLYDPEKGMFLPDRFVKGTCPKCKSPDQYGDNCEVCGATYSPTELIEPKSVVSGATPVMRDSEHFFFDLPSFSEMLQAWTRSGALQEQVANKMQEWFESGLQQWDISRDAPYFGFEIPNAPGKYFYVWLDAPIGYMGSFKNLCDKRGDSVSFDEYWKKDSTAELYHFIGKDIVYFHSLFWPAMLEGSNFRKPSNLFVHGYVTVNGAKMSKSRGTFIKASTWLNHFDADSLRYYYTAKLSSRIDDIDLNLEDFVQRVNADIVNKVVNLASRNAGFINKRFDGVLASELADPQLYKTFTDAAEVIGEAWESREFGKAVREIMALADLANRYVDEQAPWVVAKQEGRDADLQAICSMGINLFRVLMTYLKPVLPKLTERAEAFLNTELTWDGIQQPLLGHKVNPFKALYNRIDMRQVEALVEASKEEVKAAAAPVTGPLADDPIQETITFDDFAKVDLRVALIENAEFVEGSDKLLRLTLDLGGEKRNVFSGIRSAYPDPQALIGRHTIMVANLAPRKMRFGISEGMVMAAGPGGKDIFLLSPDAGAKPGHQVK
- total protein half-life in vivo [1]: 4.5 ± 0.63 h
- total protein half-life in vivo [2]: 4.18 ± 0.33 h
- total protein half-life in vivo [3]: 4.16 ± 0.055 h
- total protein half-life in vivo [4]: 4.3651 ± 0.0038 h
- total protein half-life in vivo [5]: 4.17 ± 0.25 h
- total protein half-life in vivo [6]: 3.09 ± 0.24 h
- total protein half-life in vivo [7]: 5.54 ± 0.16 h
- total protein half-life in vivo [8]: 9.62 ± 0.28 h
- total protein half-life in vivo [9]: 4.1 ± 0.34 h
- total protein half-life in vivo [10]: 6.3 ± 0.071 h
- total protein half-life in vivo [11]: 5.51 ± 0.33 h
- total protein half-life in vivo [12]: 11.4 ± 0.34 h

Sequence: MTRAVKPRRFAIRPIIYASVLSAGVLLCAFSAHADERDQLKSIQADIAAKERAVRQKQQQRASLLAQLKKQEEAISEATRKLRETQNTLNQLNKQIDEMNASIAKLEQQKAAQERSLAAQLDAAFRQGEHTGIQLILSGEESQRGQRLQAYFGYLNQARQETIAQLKQTREEVAMQRAELEEKQSEQQTLLYEQRAQQAKLTQALNERKKTLAGLESSIQQGQQQLSELRANESRLRNSIARAEAAAKARAEREAREAQAVRDRQKEATRKGTTYKPTESEKSLMSRTGGLGAPRGQAFWPVRGPTLHRYGEQLQGELRWKGMVIGASEGTEVKAIADGRVILADWLQGYGLVVVVEHGKGDMSLYGYNQSALVSVGSQVRAGQPIALVGSSGGQGRPSLYFEIRRQGQAVNPQPWLGR
- total protein half-life in vivo [1]: 6.31 ± 0.39 h
- total protein half-life in vivo [2]: 6.29 ± 0.37 h
- total protein half-life in vivo [3]: 6.76 ± 0.51 h
- total protein half-life in vivo [4]: 7.049 ± 0.041 h
- total protein half-life in vivo [5]: 6 ± 0.41 h
- total protein half-life in vivo [6]: 3.18 ± 0.08 h
- total protein half-life in vivo [7]: 5.778 ± 0.045 h
- total protein half-life in vivo [8]: 11.3 ± 0.53 h
- total protein half-life in vivo [9]: 6.31 ± 0.22 h
- total protein half-life in vivo [10]: 13.1 ± 0.39 h
- total protein half-life in vivo [11]: 5.92 ± 0.37 h
- total protein half-life in vivo [12]: 12.9 ± 0.95 h

Sequence: MTRLASRFGAANLIRRDRPLTREELFRVVPSVFSEDKHESRSERYTYIPTISLLDSLQREGFQPFFACQTRVRDPGRREHTKHMLRLRREGQITGKQVPEIILLNSHDGTSSYQMLPGLFRAVCQNGLVCGESFGEVRVPHKGDVVSQVIEGAYEVLGIFDRVEEKRDAMQSLLLPPPAQQALAKAALTYRFGEDHQPVTESQILSPRRWQDESNDLWTTYQRIQENLIKGGLSGRNAKGGRSHTRAVRGIDGDVKLNRALWVMAEALLTQLQ
- total protein half-life in vivo [1]: 5.7 ± 0.74 h
- total protein half-life in vivo [7]: 3.1 h
- total protein half-life in vivo [9]: 4.67 h
- total protein half-life in vivo [11]: 3.42 h

Sequence: MTRYQHLATLLAERIEQGLYRHGEKLPSVRSLSQEHGVSISTVQQAYQTLETMKLITPQPRSGYFVAQRKAQPPVPPMTRPVQRPVEITQWDQVLDMLEAHSDSSIVPLSKSTPDVEAPSLKPLWRELSRVVQHNLQTVLGYDLLAGQRVLREQIARLMLDSGSVVTADDIIITSGCHNSMSLALMAVCKPGDIVAVESPCYYGSMQMLRGMGVKVIEIPTDPETGISVEALELALEQWPIKGIILVPNCNNPLGFIMPDARKRAVLSLAQRHDIVIFEDDVYGELATEYPRPRTIHSWDIDGRVLLCSSFSKSIAPGLRVGWVAPGRYHDKLMHMKYAISSFNVPSTQMAAATFVLEGHYHRHIRRMRQIYQRNLALYTCWIREYFPCEICITRPKGGFLLWIELPEQVDMVCVARQLCRMKIQVAAGSIFSASGKYRNCLRINCALPLSETYREALKQIGEAVYRAME
- total protein half-life in vivo [1]: 6.94 ± 1 h
- total protein half-life in vivo [2]: 3.72 ± 0.22 h
- total protein half-life in vivo [3]: 2.89 h
- total protein half-life in vivo [5]: 2.79 ± 0.039 h
- total protein half-life in vivo [6]: 3.04 ± 0.04 h
- total protein half-life in vivo [7]: 4.58 ± 0.076 h
- total protein half-life in vivo [8]: 7.69 ± 0.59 h
- total protein half-life in vivo [9]: 3.09 ± 0.11 h
- total protein half-life in vivo [11]: 3.19 ± 0.25 h
- total protein half-life in vivo [12]: 6.91 ± 3.5 h

Sequence: MTSLVSLENVSVSFGQRRVLSDVSLELKPGKILTLLGPNGAGKSTLVRVVLGLVTPDEGVIKRNGKLRIGYVPQKLYLDTTLPLTVNRFLRLRPGTHKEDILPALKRVQAGHLINAPMQKLSGGETQRVLLARALLNRPQLLVLDEPTQGVDVNGQVALYDLIDQLRRELDCGVLMVSHDLHLVMAKTDEVLCLNHHICCSGTPEVVSLHPEFISMFGPRGAEQLGIYRHHHNHRHDLQGRIVLRRGNDRS [P0A9X1]
- total protein half-life in vivo [1]: 5.6 ± 0.31 h
- total protein half-life in vivo [2]: 5.12 ± 0.41 h
- total protein half-life in vivo [3]: 2.88 ± 1.1 h
- total protein half-life in vivo [4]: 2 ± 0.1 h
- total protein half-life in vivo [5]: 4.75 ± 2.8 h
- total protein half-life in vivo [6]: 2.63 ± 0.088 h
- total protein half-life in vivo [7]: 4.39 ± 0.11 h
- total protein half-life in vivo [8]: 6.41 ± 2.1 h
- total protein half-life in vivo [9]: 2.6 ± 0.37 h
- total protein half-life in vivo [10]: 5.01 ± 2 h
- total protein half-life in vivo [11]: 4.12 ± 0.059 h
- total protein half-life in vivo [12]: 7.83 ± 2 h
